From the RNAGym collection of RNA variant scans (doi:10.1073/pnas.2313332121)
For some assays here: This sample holds only a part of the variants without activity.

B1: TPR t1 (parent)
chain: GACCAAUCUGCCCUCAGAGCUCGAGAACAUCUUCGGAUGCAGAGGAGGCAGGCUUCGGUGGCGCGAUAGCGCCAACGUCCUCAACCUCCAAUGCAUCCCACCACAUGAUGAUGCCUGAAGAGCCUUGGUUUUUUG
B2: TPR 5TU (parent)
chain: GGAUCUUCUCGAUCUAACAAAAAAGACAAAUCUGCCACAAAGCUUGAGAGCAUCUUCGGAUGCAGAGGCGGCAGCCUUCGGUGGCGCGAUAGCGCCAACGUUCUCAACUAUGACACGCAAAACGCGUGCUCCGUUGAAUGGAGUUUAUCAUG

Variants of: B1
Assay: polymerase ribozyme fitness, log enrichment relative to wild type (log ratio); higher = more active; in vitro selection for triplet polymerase activity
Method in brief: (§1)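 Fitness is a logarithmic measure of how a genotype enriched relative to the wild type, with replicate averages weighted by inverse variance. The logarithm uses base 2, and enrichment came from Illumina sequencing of input and output libraries. Those libraries were PCR-built, transcribed mutants of each subunit of a heterodimeric triplet polymerase ribozyme, passed through one triplicate in vitro selection round that included frozen incubation at −7 °C, gel excision of extended constructs and streptavidin-bead capture. Genotypes were kept only if they had ≥10 input reads and ≥1 read per output.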

Row | Variant | polymerase ribozyme fitness (log ratio)
1 | G122A U130A | -0.49
2 | G122C | -2.37
3 | G122U | 0.322
4 | G122U C124G U130A | 0.942
5 | G122U U130G | -0.749
6 | C123A C124U | 2.15
7 | C123A G128U | -0.255
8 | C123A G135A | 0.422
9 | C123G U125C | 1.61
10 | C123G U129A | -1.13
11 | C123G U131A | 0.367
12 | C123G U133A | 2.19
13 | C123U C124A | 2.14
14 | C124A G128U | 0.625
15 | C124A U125A | 1.57
16 | C124U U126A | 1.37
17 | G127A U129A | -1.26

Row | Variant | polymerase ribozyme fitness (log ratio)
18 | G127A U130C | -0.727
19 | G127C G128U U133A | -1.83
20 | G127U G128A | -2.19
21 | G127U U132C | -0.0869
22 | G128C U130C | -1.33
23 | U129A | -1.11
24 | U129A G135C | -0.497
25 | U129C | -0.185
26 | U129G | -1.1
27 | U129G U130A | -2.04
28 | U130G U131A | -0.66
29 | U131C U132A | -0.543
30 | U133A | -0.252
31 | U133C | 0.332
32 | U133G | -0.279
33 | U133G G135C | 0.463

Variants of: B2
Assay: as above
Method in brief: as §1

Row | Variant | polymerase ribozyme fitness (log ratio)
34 | C54G A60G C95G | -2.44
35 | G46A A52C U139G | -3.91
36 | A21U A60C C87A A98G G100C | ≤ -4.2
37 | U15G A23G G50C C51G C63G C96G | ≤ -4.2
38 | U56A G141U | 0.137
39 | G58A G83A C87U U101G G141C | -3.39
40 | G25U A49G A52U U90G C125G A142U G143C | ≤ -4.2
41 | G50A U61A G81U G83C A91U U104G G143A | ≤ -4.2
42 | C38A U61A C96G | -2.38
43 | C51A A52G U56G C79A | ≤ -4.2
44 | A23U G42U G58U C75U U148G | ≤ -4.2
45 | A17C C76U G92U C129A | -3.05
46 | C14A C76G C87A A119G A138C U148A | ≤ -4.2
47 | C14G A21G G34A A37C G50C C57G A60C A64G | ≤ -4.2
48 | G50U A91G | -2.52
49 | C57U C76U A98G | -0.421
50 | C93U G141A | -1.7
51 | U53A G58C A66C G84A A91G U102G A119U C132A | ≤ -4.2
52 | A29C C35U U53A C76G G92A C99A A122G G124U | ≤ -4.2
53 | U44A G81A A137G | ≤ -4.2
54 | U61A C108U | -3.86
55 | A49G G58C | -0.689
56 | U6A U44A C57G G70A G80A C85U G126U C131G | ≤ -4.2
57 | U6A U13A U61A C76A A91G | ≤ -4.2
58 | A24G G83U | -3.03

Row | Variant | polymerase ribozyme fitness (log ratio)
59 | C38U C57A C87A | ≤ -4.2
60 | U7C G50C C51U C87U G152U | ≤ -4.2
61 | C8U A17G A30U C95U G126A U148G | ≤ -4.2
62 | A41C A142G U144C G152A | -3.09
63 | A28U A37C U139C U151G | ≤ -4.2
64 | A26C G94A C131U | -1.51
65 | A23G U144G | -1.79
66 | U134G | -2.37
67 | G11C C14A A16G C87U | ≤ -4.2
68 | A19U A26C G46U C93A C95G C108A U151G | ≤ -4.2
69 | C76G A97U | ≤ -4.2
70 | A22U A26U | -2.88
71 | A16G A17C A21U A29G U55A C57G A91C C103U U145A | ≤ -4.2
72 | C99A U146A | -1.15
73 | A19U G25U A49C U55G U56G C85U A98G A106G C118U G133A U145G | ≤ -4.2
74 | C14A A19C G58U A89U | -2.28
75 | A30C A39U U44A U53A C93A | ≤ -4.2
76 | G59U C96U A121C G126A U146G | -2.76
77 | C8G C36U C114U A115G U135G A150C | ≤ -4.2
78 | C87G C99U | ≤ -4.2
79 | C35A A47U C57U U101A C114G C123U | ≤ -4.2
80 | C18U C35U G58U G80C C85U | ≤ -4.2
81 | A28C U134A | ≤ -4.2
82 | A49U A73G G86C A97U | ≤ -4.2
83 | G34A A120C | 0.113
